The target in assay [1] is HLA-A*02:01. Nature of the assay: IEDB peptide-MHC binding, purified MHC/competitive/fluorescence; ≥ and ≤ were set here for values at or beyond the usual limits of such assays. To be noted: source organism: Sudan ebolavirus.
Assay [2] concerns the target HLA-A*02:01. Put plainly: IEDB peptide-MHC binding, purified MHC/direct/fluorescence; filed as Kd, often an IC50 or EC50 that approximates it; ≥ and ≤ were set here for values at or beyond the usual limits of such assays.
For the next assay, the target named is HLA-B*53:01. Nature of the assay: IEDB peptide-MHC binding, purified MHC/competitive/radioactivity; filed as Kd, often an IC50 or EC50 that approximates it; ≥ and ≤ were set here for values at or beyond the usual limits of such assays.
In another assay the target is HLA-A*26:01. The assay is described as above.
A further assay deals with HLA-A*24:02. Described as above.
For another assay, the target named is HLA-A*69:01. Put plainly: IEDB peptide-MHC binding, purified MHC/direct/fluorescence; filed as Kd, often an IC50 or EC50 that approximates it; ≥ and ≤ were set here for values at or beyond the usual limits of such assays.
In another assay the target is HLA-A*30:02. Nature of the assay: IEDB peptide-MHC binding, purified MHC/competitive/radioactivity; filed as Kd, often an IC50 or EC50 that approximates it; ≥ and ≤ were set here for values at or beyond the usual limits of such assays.
For assay [3], the target named is HLA-A*01:01. The description is as above.
In assay [4] the target is HLA-A*01:01. Nature of the assay: IEDB peptide-MHC binding, purified MHC/direct/fluorescence; filed as Kd, often an IC50 or EC50 that approximates it; ≥ and ≤ were set here for values at or beyond the usual limits of such assays.
The target of another assay is HLA-A*11:01. The description is as above.
The next assay has as its target HLA-A*03:01. The description is as above.
A further assay has as its target HLA-A*31:01. Put plainly: IEDB peptide-MHC binding, purified MHC/competitive/radioactivity; filed as Kd, often an IC50 or EC50 that approximates it; ≥ and ≤ were set here for values at or beyond the usual limits of such assays. The settings on record: source organism: Dengue virus 2 Jamaica/1409/1983.
The next assay concerns the target HLA-A*68:01. The assay is described as above. The settings on record: source organism: Dengue virus 2 Jamaica/1409/1983.
Another assay deals with HLA-A*33:01. Described as above. The settings on record: source organism: Dengue virus 2 Jamaica/1409/1983.
The target of another assay is HLA-A*02:03. The description is as above. To be noted: source organism: Vaccinia virus WR.
A further assay has as its target HLA-A*02:02. Described as above. To be noted: source organism: Vaccinia virus WR.
The target in the next assay is HLA-A*02:06. Described as above. The settings on record: source organism: Vaccinia virus WR.
[5] abbreviates: source organism: Dengue virus 3 Martinique/1243/1999.
[6] abbreviates: source organism: Dengue virus 1 Brazil/97-11/1997.
The mark [7] stands for this setting: source organism: Dengue virus 2 Jamaica/1409/1983.
Setting [8] is: source organism: Vibrio parahaemolyticus.
The mark [9] stands for this setting: source organism: Dengue virus 4 Philippines/H241/1956.
The mark [10] stands for this setting: source organism: Coxiella burnetii.
The mark [11] stands for this setting: source organism: Mammarenavirus caliense.
The mark [12] stands for this setting: source organism: Dengue virus 1 Singapore/S275/1990.
The mark [13] stands for this setting: source organism: Mycobacterium tuberculosis variant bovis.
Where [14] appears, read: source organism: Bacillus anthracis.

As usually defined, the IC50 is the concentration that inhibits the measured activity by half. Read a low IC50 as greater potency. As a reminder, the Kd is the equilibrium constant for the complex coming apart.

Turning to GMVPLHIPE, the IC50 in the assay with HLA-A*02:01 [1] was at least 103000 nM.
In the assay with HLA-A*02:01 [2] (source organism: Mammarenavirus lassaense), LLMEGLKLL showed a Kd of at most 1 nM.
As for NPQKENDQY, the Kd with HLA-B*53:01 (setting [5]) is 2080 nM.
For ETTKHAVSRG, the Kd in the assay with HLA-A*26:01 (setting [6]) is at least 69700 nM.
As for TYGLNTFTN, the Kd with HLA-A*24:02 (setting [7]) came out at 1590 nM.
Turning to FQLAAPSGF, the results for the Kd with HLA-A*02:01 [2] (setting [8]) and in the assay with HLA-A*69:01 (setting [8]) were 9000 nM and at least 20000 nM, respectively.
TWHYDEDNPY: the Kd in the assay with HLA-A*30:02 (setting [6]) is 3070 nM.
ILQDMRNTI: the Kd in the assay with HLA-A*02:01 [2] (source organism: Alto Paraguay hantavirus) amounted to 7.6 nM.
Regarding STESHNQTF, in the assay with HLA-A*01:01 [3] (setting [7]), the Kd was 8210 nM.
In the case of TWPKSHTLW, the equilibrium dissociation constant (Kd) in the assay with HLA-A*24:02 (setting [5]) came to 39.8 nM.
On to VAGGLLLAAY, for which, in the assay with HLA-A*30:02 (setting [9]), the Kd was determined as 78.7 nM.
As for YVDHYYRDY, the Kd stood at 92.3 nM with HLA-A*01:01 [4] (source organism: Homo sapiens) and 2000 nM with HLA-A*69:01 (source organism: Homo sapiens).
Turning to EFIDGISLGL, the Kd with HLA-A*26:01 (setting [9]) is 4720 nM.
Regarding NPTVDGITVI, the Kd in the assay with HLA-B*53:01 (setting [7]) is 2510 nM.
DVVDRGWGN: in the assay with HLA-A*26:01 (setting [9]), the Kd is at least 77900 nM.
For the sequence KLLPDTAAV, the Kd with HLA-A*02:01 [2] (source organism: Amur virus) came to 2.1 nM.
Regarding VAELVHFLL, in the assay with HLA-A*24:02 (source organism: Homo sapiens), the Kd was found to be 149 nM.
ILCGWHLLK: the Kd with HLA-A*11:01 (setting [10]) came to 3.8 nM; in the assay with HLA-A*03:01 (setting [10]) it was 33.2 nM.
In the case of HPGAGKTKRY, the dissociation constant Kd with HLA-B*53:01 (setting [7]) was at least 20200 nM.
Turning to SEFKSRFFIW, the Kd was 2210 nM in the assay with HLA-A*01:01 [3] (setting [11]), at least 69700 nM with HLA-A*26:01 (setting [11]) and 7480 nM with HLA-A*30:02 (setting [11]).
Turning to ESEMIIPKIY, the Kd with HLA-A*01:01 [3] (setting [12]) was found to be 6210 nM; with HLA-A*26:01 (setting [12]), 19900 nM; with HLA-A*30:02 (setting [12]) it was 11700 nM.
Sequence MASTPASRY showed a dissociation constant (Kd) with HLA-A*01:01 [4] (source organism: Influenza A virus (A/Fujian/411/02-like(H3N2))) of at least 20000 nM.
As to YVDFREYEYD, the Kd with HLA-A*01:01 [3] (source organism: Homo sapiens) worked out at 90 nM.
Sequence KCDICTDEY registered a Kd in the assay with HLA-A*01:01 [4] (source organism: Homo sapiens) of 806 nM.
VYTQLCDHRL: the Kd with HLA-A*24:02 (setting [5]) was 6.35 nM.
Take IHLAIMAVF: in the assay with HLA-A*24:02 (setting [9]), the Kd is 71.9 nM.
For the sequence SRKTFDSEY, the dissociation constant (Kd) with HLA-A*30:02 (setting [7]) amounted to 3810 nM.
With MTTEDMLTVW, in the assay with HLA-B*53:01 (setting [5]), the Kd is 122 nM.
On to EVDSFSLGL, for which the Kd with HLA-A*01:01 [3] (setting [12]) came to 10500 nM.
Take VAIDLDPVVY: the equilibrium dissociation constant (Kd) with HLA-A*01:01 [3] (setting [6]) was at least 33400 nM; in the assay with HLA-A*30:02 (setting [6]), 825 nM.
As for IAGGMLIACY, the Kd with HLA-A*30:02 (setting [6]) amounted to 418 nM.
On to SLIPDATHL, for which the dissociation constant Kd with HLA-A*02:01 [2] (source organism: Lassa virus Josiah) came out at 18.1 nM.
GSQPGGPLK returned an equilibrium dissociation constant (Kd) with HLA-A*03:01 (setting [13]) of 1570 nM.
For TVMDIISRR, the Kd worked out at 17.9 nM with HLA-A*31:01, 3.87 nM with HLA-A*68:01, 11.1 nM with HLA-A*33:01 and 2710 nM with HLA-A*26:01 (setting [7]).
Take VIRHVDGKIL: the Kd is at least 33400 nM with HLA-A*02:03, at least 70000 nM in the assay with HLA-A*02:02 and at least 69800 nM with HLA-A*02:06.
Turning to ALLDLGWTI, the dissociation constant Kd with HLA-A*02:01 [2] (source organism: Mycobacterium tuberculosis) worked out at 0.9 nM.
As for LIGLTARATW, the Kd in the assay with HLA-B*53:01 (setting [6]) worked out at 1810 nM.
VLWDIPTPK returned a Kd in the assay with HLA-A*11:01 (source organism: Yellow fever virus 17D) of 4.4 nM.
Consider DVIPMVTQL, for which the Kd in the assay with HLA-A*26:01 (setting [9]) is 112 nM.
In turn, GVQPSATGR showed a Kd with HLA-A*03:01 (setting [13]) of at least 20000 nM.
With EPSKGWNDW, the dissociation constant Kd in the assay with HLA-B*53:01 (setting [6]) worked out at 1110 nM.
As to CAVIPFDDI, the Kd was at least 10000 nM with HLA-A*02:03, 15800 nM in the assay with HLA-A*02:02 and 1160 nM in the assay with HLA-A*02:06.
GSDGGLDDY: the Kd with HLA-A*01:01 [4] (source organism: Homo sapiens) came out at 58.1 nM; in the assay with HLA-A*69:01 (source organism: Homo sapiens), 1930 nM.
As to ATMTDDIGM, in the assay with HLA-A*26:01 (setting [7]), the Kd turned out to be 8340 nM.
As to ELWARISSSL, the Kd with HLA-A*02:03 is 324 nM; with HLA-A*02:02 it was 175 nM; with HLA-A*02:06, 9290 nM.
On to ILSLETVKM, for which the Kd in the assay with HLA-A*02:03 was determined as 11.8 nM; in the assay with HLA-A*02:02 it was 4.77 nM; with HLA-A*02:06 it was 280 nM.
Take VLRGNRQGL: the Kd with HLA-A*02:01 [2] (setting [14]) is 4460 nM; in the assay with HLA-A*69:01 (setting [14]) it was at least 20000 nM.
For the sequence TTDISEMGA, in the assay with HLA-A*01:01 [3] (setting [9]), the Kd turned out to be 188 nM.
For DAMIHKTYI, the Kd with HLA-A*02:03 came out at 1520 nM; with HLA-A*02:02, 5420 nM; with HLA-A*02:06, 9570 nM.

Values taken from the Immune Epitope Database (IEDB).
